This assay addresses His6-AstR (Acinetobacter baumannii ATCC 17978VU). Kind of assay: SEC; size exclusion chromatography with standard curves; purified His6-AstR; Size Exclusion Buffer 50 mM Tris, 300 mM NaCl, pH 8.

In general, stoichiometry N refers to the number of molecules, sites or subunits per partner or assembly. In turn, His6-AstR (natural protein) registered a stoichiometry N of 2.
